In paper doi:10.1101/2024.03.12.584494:
Blank lines part the entries; values can stand above or below the substance they belong to.

What was measured:
Test in all cases: co-IP
[1] = target: mCherry-PICK1 WT (mouse) (UniProt Q62083)
[2] = target: mGFP-KIBRA ΔC2 (mouse) (UniProt Q5SXA9)
[3] = target: mGFP-KIBRA ΔCCL (mouse) (UniProt Q5SXA9)
[4] = target: mCherry-KIBRA WT (mouse) (UniProt Q5SXA9)
[5] = target: mGFP-PICK1 5K-E (mouse) (UniProt Q62083)
[6] = target: mGFP-KIBRA ΔαBR (mouse) (UniProt Q5SXA9)
[7] = target: mGFP-KIBRA ΔCt (mouse) (UniProt Q5SXA9)

mCherry-PICK1 WT (mouse), sequence (Q62083 whole entry): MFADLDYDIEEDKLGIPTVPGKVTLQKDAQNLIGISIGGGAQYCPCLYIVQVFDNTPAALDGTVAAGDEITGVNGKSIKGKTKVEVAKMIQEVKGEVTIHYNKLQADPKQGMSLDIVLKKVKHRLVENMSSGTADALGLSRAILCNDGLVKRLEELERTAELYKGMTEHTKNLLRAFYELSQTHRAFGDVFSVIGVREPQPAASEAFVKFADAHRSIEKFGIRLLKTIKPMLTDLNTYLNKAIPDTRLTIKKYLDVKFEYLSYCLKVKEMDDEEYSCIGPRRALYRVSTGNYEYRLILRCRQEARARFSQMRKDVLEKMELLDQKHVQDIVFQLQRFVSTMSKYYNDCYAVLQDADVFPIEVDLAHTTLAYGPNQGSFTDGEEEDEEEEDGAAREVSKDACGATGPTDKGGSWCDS
mGFP-KIBRA ΔCCL, sequence (Q5SXA9 whole entry, stated change not applied): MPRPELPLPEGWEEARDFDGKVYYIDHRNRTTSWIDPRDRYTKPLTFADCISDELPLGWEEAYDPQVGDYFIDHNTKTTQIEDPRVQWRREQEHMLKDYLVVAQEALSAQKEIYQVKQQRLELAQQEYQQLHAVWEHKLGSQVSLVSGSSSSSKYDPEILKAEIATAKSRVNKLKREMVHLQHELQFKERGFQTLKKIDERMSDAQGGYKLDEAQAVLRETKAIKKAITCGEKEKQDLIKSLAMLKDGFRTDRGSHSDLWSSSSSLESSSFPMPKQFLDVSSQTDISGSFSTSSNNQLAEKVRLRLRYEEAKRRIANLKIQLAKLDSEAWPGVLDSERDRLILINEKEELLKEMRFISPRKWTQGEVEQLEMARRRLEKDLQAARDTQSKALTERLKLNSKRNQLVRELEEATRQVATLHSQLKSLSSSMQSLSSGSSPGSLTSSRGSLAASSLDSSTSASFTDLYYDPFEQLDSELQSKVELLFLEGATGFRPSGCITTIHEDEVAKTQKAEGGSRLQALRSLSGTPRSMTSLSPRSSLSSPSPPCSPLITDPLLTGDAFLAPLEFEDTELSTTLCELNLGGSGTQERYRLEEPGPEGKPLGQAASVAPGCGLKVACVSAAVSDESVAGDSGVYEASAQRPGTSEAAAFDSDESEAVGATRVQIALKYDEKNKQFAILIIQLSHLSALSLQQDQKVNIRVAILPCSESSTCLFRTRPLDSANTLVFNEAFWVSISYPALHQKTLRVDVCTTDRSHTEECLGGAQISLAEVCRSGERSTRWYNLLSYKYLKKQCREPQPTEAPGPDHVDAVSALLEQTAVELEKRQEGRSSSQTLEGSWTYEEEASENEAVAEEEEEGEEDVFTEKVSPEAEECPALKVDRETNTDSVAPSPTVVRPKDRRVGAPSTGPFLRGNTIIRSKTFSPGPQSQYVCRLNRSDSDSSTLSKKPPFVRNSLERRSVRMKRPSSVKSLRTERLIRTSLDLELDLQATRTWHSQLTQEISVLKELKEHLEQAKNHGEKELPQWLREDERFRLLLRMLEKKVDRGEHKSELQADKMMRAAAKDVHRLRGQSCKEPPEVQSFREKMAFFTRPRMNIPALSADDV
mCherry-KIBRA WT (mouse), sequence (Q5SXA9 whole entry): as the sequence (Q5SXA9 whole entry, stated change not applied) above
mGFP-KIBRA ΔCt, sequence (Q5SXA9 whole entry, stated change not applied): as above
mGFP-KIBRA ΔαBR, sequence (Q5SXA9 whole entry, stated change not applied): as above
mGFP-KIBRA ΔC2, sequence (Q5SXA9 whole entry, stated change not applied): as above
mGFP-PICK1 5K-E (mouse), sequence (Q62083 whole entry): as the sequence (Q62083 whole entry) above
Myc-GluA2, sequence (P19491 22-883): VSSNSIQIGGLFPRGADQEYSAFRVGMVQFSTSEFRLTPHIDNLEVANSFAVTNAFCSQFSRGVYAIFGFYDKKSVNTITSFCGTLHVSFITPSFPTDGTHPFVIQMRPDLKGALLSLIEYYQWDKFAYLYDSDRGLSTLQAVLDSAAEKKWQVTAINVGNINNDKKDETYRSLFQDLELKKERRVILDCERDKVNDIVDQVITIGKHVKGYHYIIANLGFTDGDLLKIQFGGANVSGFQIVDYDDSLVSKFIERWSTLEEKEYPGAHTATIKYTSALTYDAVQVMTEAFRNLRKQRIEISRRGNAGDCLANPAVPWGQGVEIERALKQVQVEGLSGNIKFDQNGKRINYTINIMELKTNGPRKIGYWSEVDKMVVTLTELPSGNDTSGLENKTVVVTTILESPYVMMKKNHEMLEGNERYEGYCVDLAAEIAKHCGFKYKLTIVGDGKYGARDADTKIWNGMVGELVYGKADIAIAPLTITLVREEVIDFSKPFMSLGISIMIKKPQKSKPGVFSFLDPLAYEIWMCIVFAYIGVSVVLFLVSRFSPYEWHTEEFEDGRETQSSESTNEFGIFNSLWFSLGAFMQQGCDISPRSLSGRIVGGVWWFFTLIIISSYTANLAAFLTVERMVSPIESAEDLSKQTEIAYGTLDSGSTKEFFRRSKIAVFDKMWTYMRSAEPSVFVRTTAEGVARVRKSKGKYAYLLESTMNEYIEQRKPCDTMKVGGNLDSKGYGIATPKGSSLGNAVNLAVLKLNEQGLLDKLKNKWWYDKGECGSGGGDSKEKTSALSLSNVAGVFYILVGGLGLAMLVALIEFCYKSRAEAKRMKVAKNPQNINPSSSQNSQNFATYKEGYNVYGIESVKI
mCherry-KIBRA WT, sequence (Q5SXA9 whole entry): as the sequence (Q5SXA9 whole entry, stated change not applied) above
mGFP-KIBRA ΔWW, sequence (Q5SXA9 whole entry, stated change not applied): as above
mGFP-PICK1 KD-AA, sequence (Q62083 whole entry): as the sequence (Q62083 whole entry) above
mGFP-PICK1 BAR (domain or fragment), sequence (Q62083 whole entry, the tested form may be a part): as the sequence (Q62083 whole entry) above

co-precipitated KIBRA normalized to WT sample from the same blot [1]: 1.53
co-precipitated mGFP-KIBRA normalized to WT sample from the same blot [3]: 1.6
Substance: mGFP-KIBRA ΔCCL (from UniProt Q5SXA9 1-1104) (natural protein)

PICK1 pull down normalized to input and same-gel WT PICK1 [4]: 2.06
Substance: mGFP-PICK1 BAR (domain or fragment)

GluA2 signal with PICK1 5K-E normalized to +PICK1 WT [5]: 0.27
Substance: Myc-GluA2 (from UniProt P19491 22-883) (receptor)

co-precipitated KIBRA normalized to WT sample from the same blot [1]: 1.84
co-precipitated mGFP-KIBRA normalized to WT sample from the same blot [6]: 1.55
Substance: mGFP-KIBRA ΔαBR (from UniProt Q5SXA9 1-1104) (natural protein)

Further lines, the substance ahead of its results:

Substance: mGFP-KIBRA ΔC2 (from UniProt Q5SXA9 1-1104) (natural protein)
co-precipitated KIBRA normalized to WT sample from the same blot [1]: 1.08
co-precipitated mGFP-KIBRA normalized to WT sample from the same blot [2]: 1.36

Substance: mGFP-KIBRA ΔWW (from UniProt Q5SXA9 1-1104) (natural protein)
co-precipitated KIBRA normalized to WT sample from the same blot [1]: 1.87

Substance: mGFP-PICK1 KD-AA (from UniProt Q62083 1-416) (natural protein)
PICK1 pull down normalized to input and same-gel WT PICK1 [4]: 0.8

Substance: mCherry-KIBRA WT (from UniProt Q5SXA9 1-1104) (natural protein)
KIBRA signal with PICK1 5K-E normalized to +PICK1 WT [5]: 0.63

Substance: mGFP-KIBRA ΔCt (from UniProt Q5SXA9 1-1104) (natural protein)
co-precipitated KIBRA normalized to WT sample from the same blot [1]: 5.79
co-precipitated mGFP-KIBRA normalized to WT sample from the same blot [7]: 1
